What is called EC50 is the concentration that produces a half-maximal response. A low value points to a more potent agent.

Numbering of substitutions follows the chain as printed.

B1: HJ-3 (bispecific antibody)
chain 1: not shown
chain 2: DIQMTQSPSSVSASVGDRVTITCRASQDIANYLSWYQQKPGKSPKLLIYGTSNLEVGVPSRFSGSRSGTDFTLTISSLQPEDFATYYCLQDKEFPRTFGGGTKVEIKGGGGSSGAPRFLTRPLAFVVSVGKDATLSSQIVGNPTPQVSWEKDKQPVTAGARFRLAQDGDLYRLKILDLQLSDSGQYVSRARNAIGEAFACLGLQVDAEA
chain 3: EVQLVQSGAEVKKPGSSVKVSCKASGYTFSNYLIEWVRQAPGQGLEWIGVIDPGVGDTNYNENFKGRATLTADKSTSTAYIELSSLRSEDTAVYYCAREDNTGTAFDYWGQGTTVTVSSASTKGPSVFPLAPSSKSTSGGTAALGCLVKDYFPEPVTVSWNSGALTSGVHTFPAVLQSSGLYSLSSVVTVPSSSLGTQTYICNVNHKPSNTKVDKKVEPKSCDKTHTCPPCPAPEAAGGPSVFLFPPKPKDTLMISRTPEVTCVVVDVSHEDPEVKFNWYVDGVEVHNAKTKPREEQYNSTYRVVSVLTVLHQDWLNGKEYKCKVSNKALPAPIEKTISKAKGQPREPQVCTLPPSREEMTKNQVSLSCAVKGFYPSDIAVEWESNGQPENNYKTTPPVLDSDGSFFLVSKLTVDKSRWQQGNVFSCSVMHEALHNHYTQKSLSLSPGKDYKDDDDK
chain 4: SIVMTQTPLSLSVTPGQPASISCKASQSVSSDVTWYLQKPGQSPQLLIYYVSEHYTGVPDRFSGSGYGTDFTLKISRVEAEDVGVYYCQQHHRFPLTFGQGTKLEIKRTVAAPSVFIFPPSDEQLKSGTASVVCLLNNFYPREAKVQWKVDNALQSGNSQESVTEQDSKDSTYSLSSTLTLSKADYEKHKVYACEVTHQGLSSPVTKSFNRGEC
B2: HJ-6 (bispecific antibody)
chain 1: not shown
chain 2: B1 chain 2 with R121C, L123K, F125S, T144F, A160V, I194H
chain 3: EVQLVQSGAEVKKPGSSVKVSCKASGYTFSNYLIEWVRQAPGQGLEWIGVIDPGVGDTNYNENFKGRATLTADKSTSTAYIELSSLRSEDTAVYYCAREDNTGTAFDYWGQGTTVTVSSASTKGPSVFPLAPSSKSTSGGTAALGCLVKDYFPEPVTVSWNSGALTSGVHTFPAVLQSSGLYSLSSVVTVPSSSLGTQTYICNVNHKPSNTKVDKKVEPKSCDKTHTCPPCPAPEAAGGPSVFLFPPKPKDTLMISRTPEVTCVVVDVSHEDPEVKFNWYVDGVEVHNAKTKPREEQYNSTYRVVSVLTVLHQDWLNGKEYKCKVSNKALPAPIEKTISKAKGQPREPQVCTLPPSREEMTKNQVSLSCAVKGFYPSDIAVEWESNGQPENNYKTTPPVLDSDGSFFLVSKLTVDKSRWQQGNVFSCSVMHEALHNHYTQKSLSLSPGK
chain 4: B1 chain 4
B3: HJ-5 (bispecific antibody)
chain 1: not shown
chain 2: B1 chain 2 with L123K, F125S, T144F, A160V, I194H
chain 3: B2 chain 3
chain 4: B1 chain 4
B4: PL-15 (bispecific antibody)
chain 1: not shown
chain 2: DIVLTQSPASLAVSPGQRATITCRASESVSIHGTHLMHWYQQKPGQPPKLLIYAASKLESGVPARFSGSGSGTDFTLTINPVEAEDTANYYCQQSFEDPLTFGQGTKLEIKRTVASGIPPKIECLPIDISIDEGKCLTVASAFTGEPTPEVTWSTGGRKIHSQEQGRFHIENTDDSTTLTIKDVQKQDGGLYTLTLRNEFGSDSATVNIHIRSI
chain 3: not shown
chain 4: not shown
B5: PL-17 (bispecific antibody)
chain 1: not shown
chain 2: B4 chain 2 with C136V
chain 3: not shown
chain 4: not shown
B6: PL-18 (bispecific antibody)
chain 1: not shown
chain 2: B4 chain 2
chain 3: not shown
chain 4: not shown
B7: PL-19 (bispecific antibody)
chain 1: not shown
chain 2: B4 chain 2 with C136V, A142C
chain 3: not shown
chain 4: not shown

hCTLA4, sequence (P16410 36-161 limits assumed): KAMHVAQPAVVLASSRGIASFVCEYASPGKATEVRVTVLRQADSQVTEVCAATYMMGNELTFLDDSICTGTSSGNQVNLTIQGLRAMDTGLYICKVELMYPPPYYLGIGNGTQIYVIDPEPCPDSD

For the first experiment, the target named is hIL5 (human, UniProt P05113 20-134). In words: ELISA. On the technique in general: ELISA stands for enzyme-linked immunosorbent assay.
On to B1, for which the concentration for a half-maximal effect (EC50) worked out at 17.4 nM.

Turning to B2, the EC50 was found to be 37 nM.

B3 had an EC50 of 16 nM. This EC50 lies about 2.3-fold lower than the previous one.

For a further experiment, the target named is hTSLP (human, UniProt Q969D9 29-159). In words: ELISA.
Turning to B1, a half-maximal effect (EC50) was put at 3.23 nM.

For the molecule B2, the half-maximal effective concentration (EC50) came out at 2.88 nM.

As for B3, it took 2.64 nM to reach a half-maximal effect (EC50).

The next experiment addresses hCTLA4 (human, UniProt P16410 36-161). As to the kind of experiment: ELISA.
In the case of B4, the EC50 stood at 3.2 nM. In other words, the single-digit nanomolar range.

The molecule B5 displayed a concentration for a half-maximal effect (EC50) of 6.2 nM. Compared with the last molecule, the EC50 is about 1.9-fold higher.

Molecule B6 yielded an EC50 of 6.7 nM.

B7 displayed an EC50 of 6.5 nM.

The target of another experiment is hPDL1 (human, UniProt Q9NZQ7 19-238). In words: ELISA.
hPDL1, sequence (Q9NZQ7 19-238 limits assumed): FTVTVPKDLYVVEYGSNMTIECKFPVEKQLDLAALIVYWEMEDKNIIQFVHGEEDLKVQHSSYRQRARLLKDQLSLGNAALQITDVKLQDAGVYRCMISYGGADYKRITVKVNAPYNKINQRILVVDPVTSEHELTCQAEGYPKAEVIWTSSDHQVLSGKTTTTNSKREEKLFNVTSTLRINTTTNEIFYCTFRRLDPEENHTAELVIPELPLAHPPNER
Regarding B4, the EC50 was 1.4 nM.

Molecule B5 yielded an EC50 of 1.4 nM.

B6 returned an EC50 of 1.6 nM.

Turning to B7, the concentration giving a half-maximal response (EC50) was 1.6 nM.

These data come from US20260028421A1 (JIANGSU HENGRUI PHARMACEUTICALS, published 2026).
